Protein production data for 15 sequences are collected here from a protein production outcome set (Wang et al. 2014).
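Note: failed if final PepcDB status was selected cloned or expressed and not failed if soluble or beyond.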

The data set is described as follows: label from the status in PepcDB records.
“MVVKASGGSSVARPQLYQTVPVSTIIQAEQQDRFLNRGELDELAVYLRSGAKRLEIATTLTRNADIIVSRAANRIFVGGSPMAFLSRPQTEEAPQFTTGARGEAIDIKEAMKLGTATYVDTRGGFLEGLRSIFSASSGGAPVGFKPINIARYGPARMEKSLRDLDWFLRYTTYAIVAGDPNILAVNTRGLREIIEAACSSDATIAALQEMRRAALSYFEKDAEAKGIVETYFDVLINEFIAPAPSDKVRQRNSTDLQGLQLPQIYFNAAERRPKFVMKPGLSAAEKNEVVKAAYRQIFERDISRAYGLGISDLESKVKNGSISMKEFIRQLAKSPLYRKNFYEPYINSRALELAFRHILGRGPSSREEVQTYFAIISKGGLPALVDALVDSKEYSDYFGEETVPYLRGLGQEAQECRNWGAQQDLFKYSAPFRKVPQFITTFAAQDQPLPDQHPYGSGNDPLEIQFGAIFPKEKKNPSARPQPFNKDTRRILIARGPGINNQVSNPGARGLTPGTLGPKVFKLDQLPSINARIGKRSIATGTDSVKFAESSTQRVIRAAYLQVFGRDVYEGQRQKVAEIKLENGEISVREFVRILAKSNLFRSLYWTPLYVTKAIEYIHRRLLGRPTYGRQEMNAYFDIASKKGLYGLVDAIIDSQEYSEAFGEDTVPYERYITPQGLALRSLRVGTIGETGVPPEKEETPRFVELGAVTELRTEPAIQFRANQGVSKRREQTKVFKLTDLNDKQNLQLVIQAAYRQVFERDVAPYIVRDEFTALESKLSNGEITLKEFIEALGCSELYQKEFYTPYPNTKVIELGTKHFLGRAPLDQAEIRRYNQILATQGLKAFVQALVSSAEYAQAFGEDTVPYRRFPTLPAANFPNTEKLHNQLTKQSDAIVVPSFAPVKPRLDNTKLPLLSRAIAEQEAKARQADPSKPRFIELGRSFRNGDGQSVEVGVGTTRRRPARIFRMTVGAPSAEVELVINAIYCQVMDVFSGQVPSQFRRPDLESRLRNGEITVREFVRTLASSEIYRNRFYTPYPNTKVIEFLFRHLLGRAPATQAEIRQYNKILADQGLKTAVETMVNSPEYSRYFGEDVVPYKRFPTLPAGNYIGSVKADADLVKQSWSSLSPSLVGIQPSHRD”: the protein production entry is on record as “failed”.

With “MAGLFTPKDAAMNIAIVTINQENAAIASWLAAQDFSGCTLAHWQIEPQPVVAEQVLDAMVEQWQRTPADVVLFPPGTFGDELSTRLAWRLHGASICQVTSLDIPTVSMRKSHWGNALTATLQTEKRPLCLSLARQAGAAKNATLPSGMQQLNIVPGALPDWLVSTEDLKNVSRDPLAEARRVLVVGQGGEADNQEIVMLAEKLGAEVGYSRARVMNGGVDAEKVIGISGHLLAPEVCIVVGASGAAALMAGVRNSKFMVAINHDASAAVFSQADIGVVDDWKVVLEALVTNIHAEYQ”, the protein production entry is listed as “failed”.

Take “MNPEPRCPCVLLLDTSGSMQGAAIEALNQGLLSLKDELMKNSIAARRVEIAIVTFDSHINVIQDFVTADQFNPPILTAQGLTSMGAGIHKALDMVQERKSLYRANGVAYYRPWVFMITDGEPQGELDHLVEQAALRLQGDEVNKRVAFFSVGVENANMTRLNQIAVRTPLEHHHHHH”: the protein production result is “failed”.

For “AIAAQTERRDAPELPDFSLLKRLARDQLIFLLEQLPGKKDLFIDADLMSPLDRIANVTILKQHEVDKLYKVELKPIVSSSDQLCFLIRPRIQTVKWISDLVNSDKVAGRFRRYKIIFTPQKFYACETVLEEQGVYGDVTTDEWNFYILPLDDDILSLELPEFFRDNFLEGDQRWVTTGGGALHLLQSVYGSFSKVYGIGRCAKMVYESWRELMEEGEQRTRQPEFAKVFLIDRDVDFVTPLCSQVVYEGLVDDIFRIKCSSVEFGPDVTSSDKSIKVMLNSQDKVFNEIRNEHFSNVFGFLSQKAKNLQTAYDKRRGMDIQQMKAFVADELKGLKQEHRLLSLHIGASESIMKKKTKQDFQELLKTEHSLLEGFEIRECIAYIEEHINRQVSMIDSLRLLCLLSITENGLLSKDYRSLKAQYLQSYGIEHLLTFANLRQLGLLEEQQTGETLTVMESKVGKLVNDKTAGKLTDAFSSLAKKSNFRALSKRLALVPKSGEEYDLRVPRDMAYIFSGAYIPLSCKLIEQVLERDGWTGLEEVTRMLNGQDFAVTGGSSSSEARNKSNGQRIILVMFLGGCTYSEISALRFLGKERGCRFIVLTTAITNSGRLLEALLDKHV”, the protein production result is recorded as “failed”.

For the sequence “MRAFFNSSMREKLSQLKARQQKQEMPANLSIIHALRATQEGFEDDGVMRNYDLLESQFKENLTKEDRELLESPKPNLEKLQELKIRLLEKNGIFKPPKQKSQISLVFGMNALVPLGTIKTL”, the protein production result was “failed”.

Turning to “MTDEVSVLFVDFLLEWLEMMRTRVRETTYASYNSGIRQSIIPYFMDKKLTLTDIEENPKYLQDFYQHELSKGLSPNSVLRRHANIRKALQHAFHLGLIKSNPADRIERPKKQDYTALEHHHHHH”, the protein production result was “not failed”.

Regarding “MFKIQEVRELIKLIDSSNIDEFEYKKDGTTIKMKKRGNEVVAVQAPVAKQAVQPVAPVEVETTVAAAQVEVPKQEEKKAVQNENLHKITSPMVGTFYSSSSSSPDTPPYVSVGDRVSKDSIVCIVEAMKLFNEIDADVDGEIVEILVNNGQLVEYGQPLFLVKA”, the protein production entry was “failed”.

As for “MVVAVYPGTFDPLTRGHEDLVRRASSIFDTLVVGVADSRAKKPFFSLEERLKIANEVLGHYPNVKVMGFTGLLKDFVRANDARVIVRGLRAVSDFEYEFQMAGMNRYLLPDVETMFMTPSDQYQFISGTIVREIAQLGGDVSKFVFPSVEKWLTEKVAAMAQGPSA”, the protein production entry is given as “not failed”.

For the sequence “MAYRKQLTRLKAPYLKRILLDPGRVEDWEKYPWNLPLFRGREFELEFTAPITIIVGENGTGKSTLLEAIGALAGYDEAGGGKGYMPVDHSRAIDKSGAALADNFRCHWLPKVTAGWFFRAESFYSVARYLDEAARESGATPPDFLSWSHGEGFIRFFEERCRRQGIYILDEPESALSPSRQIELLKMLRRMDQSGTAQVIMATHSPLLMACPGARLFRISRFGLEPADFRDTDHFRMLRDFSNDPDGFLAEALYEDEA”, the protein production entry was “failed”.

With “MQKFLDWLERVLTPLAKVIGENKYLVAIRDGFLLSTPLLIVGSVFLLIANFPLPQWDTWMSHLLGKDWATMMSVPASASFDVMTILAVVGIAYSLGKQFNVDAMQAGIIALVSFFIVTPYQTLFTPENSSKVYEVTSLPLKWMGSSGLFLGMIVALIATRLFVAIVRKGWTIKMPEGVPPTVVKSFEALIPSFLVVTLMFLVNWLAALTPYGNLQDVIFEFLQTPLLSLGNTLGAMSIAYLFLHFFWFFGINGGSVVGAVFNPVLRALSVENLQAFKDGHEIPNIITGQFQDMFATFGGAGSTLSLIIVMVLFCKSQRIKKLSQLSLIPGVFGINEPIIFGLPIVLNPILLIPFVLVPAINIIIAYFAMDWGLVPLTNGIQLPWTTPPIISGFLVSGWQGSILQALLLVLGMFIYYPFIRVMDDQYLREEWKAQEEESEEIDFDSFDFDDL”, the protein production entry is reported as “failed”.

For “MPARPGAARERIRSTAAPAVGEKVLNALRDLPAGMIYTLGAKPTVLRGLALAIEKRVKGIDWSPDGATLFAEVMDGSRHHEVRLEANGGFLTPSCDCPLWRPTGHCPHVIAALAVLKKGLVHQAITSLRLDSDYLAEVSGWLSGVEAAQPTAPAVPRLVVERGADGIQARIWLGEHPVSIHDQALPRTVRDFLWTLLNPRESGFIIERYLEAFGDDAPMALRQDDNEIPLRFDRGRVHGTLTLLEQVRGMVIARKGLEDGHPIPDTCFAAYRYYFDIPAGAVRVIDSFEGWDLWNTINYEAAEWSLDTGVSVERNSRTISLPADAFNAIGLTVTEKGLPTILERIRFYGAGGPGEPARITHNYRLRVADMNDTTALLLAEGVYGDAAIPLSAGAFSFFTSRGRSTASVPLRTKKRSSAVIAGCFAALDCVTRAELERTIRHALAGDDFLKRTVKSEAKRIITAFAAACETRETTLLAADGAWLISVAEPKVEAQLLEIPYRLFGAEIFGSSDLAGAMTVNRDALFRQFPALHNRLAEAGFDLVLQDRPVEAVTLDVTLDATRSTLDWFELRPEIRCGTGELTEQEIAEAMASGGVFRRGDSFLLINEESSRILAMLYPEAGVKKRRKAEVVRIPRLQILDWLVLRHHGVSVRLSPEDERIFASLATFEEIPSSPLPERLQATLRHYQVDAFHWLAFLYTHRFGACLADDMGLGKTIQAISLLAALHEGTLPSRVPEPRPHLIVVPPSLLFNWENELARFYPAFTVLTYRGTGRSADFTGVDIVLTSYGIIPRDIGILAEIPFHCIVFDEAQAVKNIQADTTGACRRLRGAFTLCLTGTPVENHLGEYFSVMDLAVPGLLGSYEEFRRQAGNAAAPFLETLVRRTRPFVLRRSKQMIAAELPPKIETDIYLELTPRQKALYTRTVEEVRETVLEAWRGKSPGQARIIALTAILRLRQLCLSPRLLIADSREPSPKVEFLVEQLEELFTEGHSVLVFSQFTSFLDIVEGELSRRGVHYYRLDGSTPVPERKRLVTAFQKGDEPSVFLLSLKAGGKGLNLTRATYVFHLDPWWNPAVENQASDRAHRIGQTRQVTITRLVMRHTIEEKMMELKKRKLKLYHALLEENSAGDGGGISREDFEFLLG”, the protein production entry is recorded as “failed”.

With “MTGKEDEYEFEKTEKSSSLDEESTGSEVNEQKESYLDIINIIGSLMQDENYSLKNESILTINKILSFLNKEIYENKNFTEAWLIKGTVLYKTGKYNGAIDAFDGALESMSEKTSEEKLDTWIKSYGINYRYALKFKAFSLCKLGRYREALNALDEISAIYPEDPEIESHKNMLQTLENERLIRRTGNTQDQPPKHPGIWERRGKSSYKLGKYEEAVKEFDRCLESNPKDADILRNKGSALYMLGRYEEAIEAFNKSLELNPRDADAWNLKGSTLYMIGRPEEALRALDKALQRNPNIFEAWFNKGSILFELGKYKQALSAVENALRINAEDINALTLKTSILSGLKQDEK”, the protein production entry was “failed”.

On to “MKNLHRCKKIFLRVFSRSARRQREPLQDAVLDLHQGAFGGFAPCSAPVQLKRKRPMTKPETTAPTAKAVLPIGLLIAVLAMVAVLLLPLPADLPVAGHRMLAILAFAVVVWISEAVSYEASAIMITALMAFLIGTAPTLQDPSQLYGSSAAIGLALTGFSNSALALVAGALFIAAAMTHTGLDRRIALVTLTRVGTSTRRILIGAIAVTILLSLLVPSATARSACVVPIMMGVIAAFGVDKRSNIAAGLMIVVAQGTSIWNVGIQTAAAQNLLTVGFMDKMLGQRVAWLDWLIAGAPWAVIMSLVLLWLVLKLLPPETDSIPGGKEAVAQSLADIGPMTGPQKRLLTVSVLLLLAWSTEGKLHPFDTTTTTYAGLVILLLPRIGIMTWKDVQSRIPWGTVIVFGVGISLGSALLSTQAGQWLGSQVVAHTGLDQVGPLAVFAILAAFLILIHLGFASATALTSALLPILIAVLQTLPGEFSRLGMTMLLGFVVSYGFILPINAPQNMVCLGTETFNARQFAKVGLLVTLIGYLLMLVFAMTWWKWLGWM”, for which the protein production result is listed as “failed”.

For the sequence “MEELDEKLANRVQVSKRAVAKIVQVIDRLMQRNEKITHVLKGDSLASAGSGSGAGAGGEEEQQQASGDAETTTSSAGVHALEETLKQTHIEIMSENHKLQNLNTSLHEKFHTMSLKMKEYQDAHTAKETENAELKNQIDELQYDLEKIHCRNDKLENHLAEAIEKLKAYHQIYGDPNKSTNSAKTPTTTGSGGATTSVNSQLLEELQKELEEYRELAN”, the protein production entry is listed as “failed”.

For “MEWKLERTAPRRVRTEEEMLWESIMRVLSKDLKQKRSQDSANVLDSVNATYSDFKSNFAKRLSAEVPVASSPITTRWQQSQTRALSSDSFGEEQSTTYLPEASGSVLKTPPEKETLTLGSCKEQLKTPSKGISETSNSALHFCKAPHAMDRDWKESVASKGQKCLKQLFVTQNVVQQANGKMQLCEQSECVWKGCKDGVRDESFHLKSSGDINDSILQPEVKIHITGLRNDYYLNILDWSFQNLVAIALGSAVYIWNGENHNGIENIDLSLTCNYISSVSWIKEGTCLAVGTSEGEVQLWDVVTKKRLRNMLGHLSVVGALSWNHFILSSGSRLGRVYHHDVRVAQHHVGTLRHKQAVCALKWSPDGRLLSSGCSDGLLTIWPHDPGASAQGQPLKVITQSTAVKAMDWCPWQSGVLAIGGGMKDGRLHILDINAGKSIQTPSTNSQICSLIWLPKTKEIATGQGTPKNDVTVWTCPTVSRSGGFFGHRGRVLHLALSPDQTWVFSAAADGTASVWNCY”, the protein production result is listed as “failed”.
